Experimental data as given in the supplement of paper PMC10567573.

B1: KRT13 (parent)
chain: KTIEELRDKILTATIENNRVILEI
B2: KLHL14 (parent)
chain: YVIGGRNETGYLSSVECYNLETNE

Variants of: B1
Assay: protein stability index of a GFP-peptide fusion (GPS, HEK-293T) (PSI 1-6); higher = more stable
Settings: c terminus: a fixed tail appended
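Note: lentivirally expressed fusions sorted by FACS into six bins by GFP to DsRed ratio, PSI derived from sequencing read proportions per bin multiplied by bin number.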

Protein stability index: each site, then its substitutions
E5: I 3.5 | M 4.08 | R 2.13 | Y 4.43 | K 2.95 | Q 2.38 | A 2.6 | G 2.46 | W 2.82 | V 1.83 | P 3.07
I10: M 2.3 | V 1.75 | S 2.2 | Q 1.54 | C 2.28 | Y 3.2 | A 2.17 | H 2.12 | F 3.07 | T 1.43 | P 2.7 | G 1.69 | D 1.73 | K 1.55 | W 3.93 | N 1.78 | L 1.47 | E 2 | R 2.31
N18: Y 2.01 | G 2.33 | D 2.18 | W 1.96 | R 3.44 | E 3.06 | I 2.9 | H 2.65 | K 3.44 | P 3.68 | S 2.99
E4: M 1.7 | V 2.4 | F 3.99 | R 3.26 | T 3.39 | L 4.03 | S 3.44 | I 2.6 | H 3.82 | D 3.39 | A 1.85
T12: N 2.83 | G 1.59 | D 1.76 | H 2.66 | V 3.5 | R 1.88 | P 2.42 | I 3.39 | Y 3.8 | A 2.5 | Q 2.65
A13: Q 1.81 | N 2.31 | K 1.67 | D 1.53 | C 2.5 | W 2.81 | G 3.86 | S 3.69 | M 1.08 | P 1.87 | L 2.61 | R 3.35 | H 2.38 | V 3 | T 1.92
T14: D 2.57 | C 3.4 | Q 2.99 | V 1.02 | P 2.52 | G 4.63 | M 2.52 | N 3.03 | A 4.11 | L 1.71 | R 2.59 | H 2.53 | E 2.77
T2: Q 3.17 | C 2.92 | N 2.12 | D 2.88 | M 2.73 | W 3.4 | H 1.86 | A 2.31 | K 2.6 | E 1.63 | L 2.35
V20: Q 2.05 | L 3.48 | R 1.72 | A 1.82 | G 1.6 | S 2.01 | E 2.27 | F 1.8 | N 2.57 | K 2.1 | P 1.78 | D 2.35 | H 1.6 | I 2.69
I3: C 3.18 | D 1.67 | E 2.13 | G 3.54 | S 2.41 | A 1.24 | T 2.91 | N 2.43 | R 1.36 | F 3.37 | Q 2.43 | P 1.39 | K 2.09
R19: I 3 | D 2.11 | M 2.14 | P 2.25 | W 2.74 | H 3.1 | Q 2.64 | N 1.76 | V 2.64 | G 3.05 | T 2.99 | S 2.23 | E 2.47
D8: M 3.19 | Q 1.67 | K 2.66 | P 2.46 | I 1.64 | Y 2.14 | S 2.79 | F 2.81 | L 1.77 | A 2.49
N17: M 2.57 | G 3.5 | I 1.73 | Q 3.06 | K 2.4 | E 2.73 | P 3.1 | C 3.65 | V 1.59 | L 1.78 | D 2.84 | T 3.19
K9: D 2.24 | V 2.86 | T 2.35 | P 2.84 | C 3.32 | E 2.7 | G 2.21 | N 2.29 | F 2.7 | S 1.99 | L 2.37 | A 1.85
E16: S 2.3 | G 2.38 | Q 3.1 | L 3.35 | H 2.52 | A 3.13 | C 2.33 | D 3.13 | W 3.31 | F 3.08 | V 2.8 | Y 1.32 | M 2.72
L11: E 1.92 | C 2.33 | K 1.59 | F 2.34 | Q 2.72 | P 1.95 | D 1.57 | H 1.52 | N 2.85 | R 1.39 | T 1.91 | A 1.3 | G 1.87 | S 2.68 | Y 3.58 | M 2.94
I15: S 2.17 | N 2.98 | F 1.08 | A 1.66 | L 2.31 | K 3.7 | G 2.77 | E 1.69 | P 2.17 | D 1.75 | Q 2.07 | T 2.6
L6: R 2.56 | T 2.46 | M 1.98 | E 1.85 | D 1.92 | K 2.32 | G 1.47 | Y 3.18 | N 1.31 | H 3.32 | V 2.23 | A 1.94 | P 1.48 | I 2.5 | Q 1.89 | C 3.04
K1: T 2.34 | Y 2.36 | D 2.31 | R 1.6 | M 1.88 | C 1.99 | A 3.63 | E 2.38 | N 2.48 | S 3.17 | P 1.24 | F 3.36 | H 2.09 | W 3.79 | I 2.74
R7: T 2.16 | N 2.38 | C 3.68 | K 1.51 | M 2.07 | L 3.71 | Q 2.85 | P 1.15 | F 1.85 | I 2.6 | D 2.25 | A 2.27

Variants of: B2
Assay: as above
Settings: c terminus: a fixed tail appended

Protein stability index: each site, then its substitutions
T22: A 2 | I 1.84 | R 2.62 | N 1.63 | W 1.53 | D 2.07 | F 1.54 | S 1.4 | L 2.1 | C 1.79 | H 2.54 | Y 2.06 | Q 1.94 | M 1.49 | V 2.6 | E 2.84 | G 1.86 | K 2.2 | P 1.76
N23: M 1.89 | D 2.75 | C 2.45 | W 1.74 | G 1.74 | Y 1.75 | I 1.56 | L 1.66 | R 1.92 | T 2.15 | H 1.86 | V 2.17 | K 1.96 | Q 3.14 | S 1.86 | P 1.75 | E 2.67 | F 1.88 | A 2.06
E24: M 1.71 | I 2.19 | R 2.17 | F 1.95 | S 2.07 | G 1.69 | L 2.27 | W 1.67 | P 1.72 | C 1.96 | K 1.75 | T 1.63 | Q 1.49 | D 2.14 | H 1.8 | V 1.96 | A 1.64 | N 1.99 | Y 2.08
E21: S 2.29 | Y 2.17 | W 3.54 | G 2.19 | M 1.74 | F 2.62 | R 1.91 | P 1.93 | D 1.8 | L 1.67 | Q 2.39 | K 2.26 | I 2.05 | N 1.55 | T 1.68 | H 1.63 | V 1.54
